The results in this text go back to patent publication US20240058465A1 (SUTRO BIOPHARMA, published 2024).

One assay deals with T1, human ROR1-ECD (human, UniProt Q01973 30-406).
T1 construct: Bought protein; also called hROR1; ROR1-extracellular domain
Put plainly: SPR (Biacore), antibody captured by anti-Fc, human ROR1-ECD analyte. The method, then:
Anti-Fc polyclonal antibodies were immobilized onto a CMS chip (GE Life Sciences) using amine coupling chemistry (from Amine Coupling Kit, GE Life Sciences). The immobilization steps were carried out at a flow rate of 25 μL/min in 1×HBS-EP+buffer (GE Life Sciences; 10× Stock diluted before use). The sensor surfaces were activated for 7 min with a mixture of NHS (0.05 M) and EDC (0.2 M). The Anti-Fc antibodies were injected over all 4 flow cells at a concentration of 25 ug/ml in 10 mM sodium acetate, pH 4.5, for 7 min. Ethanolamine (1 M, pH 8.5) was injected for 7 min to block any remaining activated groups.
Off-rate and kinetic binding experiments were performed at 25° C. using 1×HBS-EP+buffer. Test and control antibodies were injected over the anti-Fc surface at concentrations of 5-10 μg/mL for 12 seconds at a flow rate of 10 μL/min on flow cells 2, 3 and 4, followed by a buffer wash for 30 seconds at the same flow rate. […] After capturing ligand (antibody) on the anti-Fc surface, the analyte (hROR1, Fz or Kr domains, Acro Biosystems, Delaware) was bound for 180 seconds, followed by a 600 second dissociation phase at a flow rate of 50 μL/min. Between each ligand capture and analyte binding cycle, regeneration was carried out using 2 injections of 10 mM Glycine pH 2.0 for 30 seconds at 30 μL/min, followed by a 30 second buffer wash step.
(Surface plasmon resonance follows binding to a sensor surface in real time, without labels.)

The target in assay [1] is T2, human ROR1 (hROR1) expressed on cells (human, UniProt Q01973 30-937).
T2 construct: Mino cells are the target positive cells of the killing assay; also called receptor tyrosine kinase like orphan receptor 1; HCT 116-hROR1
Put plainly: flow cytometry, HCT116-hROR1 cells. A general note: In flow cytometry, cells or beads pass a laser one at a time.

The target of assay [2] is T2, human ROR1 (hROR1) expressed on cells. The assay can be described thus: cell-based or functional assay.

Where a chain is given by its changes, count along the chain named.

B1: SRP1987-C05 parent (antibody, IgG1, V domains shown)
VH: EVQLVESGGGLVQPGGSLRLSCAASGFNISDYDIHWVRQAPGKGLEWVGGIDPDDGSTDYADSVKGRFTISADTSKNTAYLQMNSLRAEDTAVYYCARDYGVFDYWGQGTLVTVSS
VL: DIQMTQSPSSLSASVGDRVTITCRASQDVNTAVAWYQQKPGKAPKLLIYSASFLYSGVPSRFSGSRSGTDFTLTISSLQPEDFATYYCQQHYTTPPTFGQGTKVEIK
notes: IgG1 with trastuzumab LC; HIS- and FLAG-tagged; cell-free expressed
For the molecule B1, in the assay with human ROR1-ECD, the affinity, expressed as Kd, was 0.694 nM; the koff (usually the first-order rate constant of dissociation) was found to be 0.000681 s⁻¹; the kon (usually the rate constant with which the complex forms) stood at 981000 M⁻¹ s⁻¹. In assay [1], the “Bmax (MFI)” value was 9500 MFI and the Kd (usually a measure of binding affinity in units of concentration) was determined as 0.04 nM. In assay [2], the “Mino Nb-PBD, drug-conjugated 2° antibody Cell Killing IC50” value was found to be 0.00077 nM and the “Mino Nb-PBD, drug-conjugated 2° antibody Cell Killing Span” value was 68%.

B2: SRP2188-D01 (antibody, IgG1, V domains shown)
VH: B1 VH with S30K, D31S, G50W, D52N, D54Y, S57D, D59Y
VL: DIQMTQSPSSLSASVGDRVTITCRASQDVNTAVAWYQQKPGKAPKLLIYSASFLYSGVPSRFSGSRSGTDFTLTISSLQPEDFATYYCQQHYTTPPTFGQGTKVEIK
notes: as for B1
In the case of B2, in assay [1], the “Bmax (MFI)” value was found to be 8940 MFI and the Kd turned out to be 0.04 nM. Besides, in assay [2], the “Mino Nb-PBD, drug-conjugated 2° antibody Cell Killing IC50” value worked out at 0.0011 nM and the “Mino Nb-PBD, drug-conjugated 2° antibody Cell Killing Span” value was 72%.

B3: SRP2188-A03 (antibody, IgG1, V domains shown)
VH: B1 VH with S30R, G50W, D52N, S57D, D59Y
VL: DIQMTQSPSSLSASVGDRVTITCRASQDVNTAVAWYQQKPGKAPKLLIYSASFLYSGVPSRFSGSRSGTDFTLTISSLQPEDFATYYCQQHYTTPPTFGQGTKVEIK
notes: as for B1
Turning to B3, in the assay with human ROR1-ECD, the Kd amounted to 0.508 nM, the koff came to 0.000389 s⁻¹ and the kon amounted to 766000 M⁻¹ s⁻¹. In addition, in assay [1], the “Bmax (MFI)” value was 9700 MFI and the Kd stood at 0.03 nM. In addition, in assay [2], the “Mino Nb-PBD, drug-conjugated 2° antibody Cell Killing IC50” value amounted to 0.001 nM and the “Mino Nb-PBD, drug-conjugated 2° antibody Cell Killing Span” value worked out at 71%.

B4: SRP2188-A07 (antibody, IgG1, V domains shown)
VH: B1 VH with S30H, D31H, G50W, D52N, S57D, D59Y
VL: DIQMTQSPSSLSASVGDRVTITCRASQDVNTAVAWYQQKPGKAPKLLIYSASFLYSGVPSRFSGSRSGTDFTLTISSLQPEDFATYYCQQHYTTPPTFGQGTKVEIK
notes: as for B1
In the assay with human ROR1-ECD, B4 had a Kd of 0.609 nM, a koff of 0.000406 s⁻¹ and a kon of 666000 M⁻¹ s⁻¹. In addition, in assay [1], the “Bmax (MFI)” value is 9330 MFI and the Kd is 0.07 nM. Further, in assay [2], the “Mino Nb-PBD, drug-conjugated 2° antibody Cell Killing IC50” value amounted to 0.00048 nM and the “Mino Nb-PBD, drug-conjugated 2° antibody Cell Killing Span” value was 75%.

B5: SRP2188-A09 (antibody, IgG1, V domains shown)
VH: B1 VH with S30I, D31N, G50W, D52N, S57D, D59Y
VL: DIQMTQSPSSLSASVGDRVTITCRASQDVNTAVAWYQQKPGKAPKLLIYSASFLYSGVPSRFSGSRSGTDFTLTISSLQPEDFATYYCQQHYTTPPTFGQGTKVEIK
notes: as for B1
In the assay with human ROR1-ECD, B5 registered a Kd of 0.424 nM, a koff of 0.000401 s⁻¹ and a kon of 944000 M⁻¹ s⁻¹. In assay [1], the “Bmax (MFI)” value came to 9380 MFI and the Kd came out at 0.03 nM. Further, in assay [2], the “Mino Nb-PBD, drug-conjugated 2° antibody Cell Killing IC50” value worked out at 0.00088 nM and the “Mino Nb-PBD, drug-conjugated 2° antibody Cell Killing Span” value was determined as 71%.

B6: SRP2188-B05 (antibody, IgG1, V domains shown)
VH: B1 VH with S30P, G50V, S57W, D59H
VL: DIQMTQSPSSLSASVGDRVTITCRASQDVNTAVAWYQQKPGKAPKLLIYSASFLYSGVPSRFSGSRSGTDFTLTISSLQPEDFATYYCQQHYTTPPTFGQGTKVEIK
notes: as for B1
For the molecule B6, in the assay with human ROR1-ECD, the Kd was 0.757 nM, the koff is 0.000671 s⁻¹ and the kon is 887000 M⁻¹ s⁻¹. Moreover, in assay [1], the “Bmax (MFI)” value is 8510 MFI and the Kd was 0.03 nM. In assay [2], the “Mino Nb-PBD, drug-conjugated 2° antibody Cell Killing IC50” value was determined as 0.0011 nM and the “Mino Nb-PBD, drug-conjugated 2° antibody Cell Killing Span” value came out at 70%.

B7: SRP2188-A05 (antibody, IgG1, V domains shown)
VH: B1 VH with S30K, D31R, G50W, D52N, S57D, D59Y
VL: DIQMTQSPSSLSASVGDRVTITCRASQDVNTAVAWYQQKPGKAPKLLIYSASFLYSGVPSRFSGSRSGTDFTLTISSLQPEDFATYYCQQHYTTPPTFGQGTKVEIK
notes: as for B1
In the assay with human ROR1-ECD, B7 came in with a Kd of 0.227 nM, a koff of 0.000243 s⁻¹ and a kon of 1.07e+06 M⁻¹ s⁻¹. In assay [1], the “Bmax (MFI)” value is 9030 MFI and the dissociation constant Kd was found to be 0.04 nM. In addition, in assay [2], the “Mino Nb-PBD, drug-conjugated 2° antibody Cell Killing IC50” value was determined as 0.001 nM and the “Mino Nb-PBD, drug-conjugated 2° antibody Cell Killing Span” value is 71%.

B8: SRP2188-B03 (antibody, IgG1, V domains shown)
VH: B1 VH with D31S, G50A, D54G, S57A, F103Y
VL: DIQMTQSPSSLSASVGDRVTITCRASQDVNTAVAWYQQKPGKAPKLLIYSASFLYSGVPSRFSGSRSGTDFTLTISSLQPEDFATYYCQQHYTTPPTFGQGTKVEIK
notes: as for B1
In the assay with human ROR1-ECD, B8 returned a Kd of 0.346 nM, a koff of 0.000334 s⁻¹ and a kon of 965000 M⁻¹ s⁻¹. Moreover, in assay [1], the “Bmax (MFI)” value was found to be 9560 MFI and binding was put at a Kd of 0.04 nM. In assay [2], the “Mino Nb-PBD, drug-conjugated 2° antibody Cell Killing IC50” value was found to be 0.0017 nM and the “Mino Nb-PBD, drug-conjugated 2° antibody Cell Killing Span” value stood at 71%.

B9: SRP2188-G01 (antibody, IgG1, V domains shown)
VH: B1 VH with D54N, S57A
VL: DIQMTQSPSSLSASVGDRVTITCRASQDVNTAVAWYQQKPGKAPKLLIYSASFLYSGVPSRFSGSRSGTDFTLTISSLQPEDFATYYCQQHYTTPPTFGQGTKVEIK
notes: as for B1
Consider B9, for which, in assay [1], the “Bmax (MFI)” value worked out at 9750 MFI and binding was characterised by a dissociation constant (Kd) of 0.05 nM. In assay [2], the “Mino Nb-PBD, drug-conjugated 2° antibody Cell Killing IC50” value is 0.0015 nM and the “Mino Nb-PBD, drug-conjugated 2° antibody Cell Killing Span” value was 61%.
